Measured values as given in patent publication US12037382.

How the values were obtained:
[1] = target: US28 wild type, G protein-coupled receptor of human cytomegalovirus strain VHL/E (human cytomegalovirus strain VHL/E); assay: displacement of 125I-CCL5 from US28-expressing HEK293T membranes by unlabeled CCL5
[2] = target: US28 wild type, G protein-coupled receptor of human cytomegalovirus strain VHL/E (human cytomegalovirus strain VHL/E); assay: cell-based or functional assay
[3] = target: US28 wild type, G protein-coupled receptor of human cytomegalovirus strain VHL/E (human cytomegalovirus strain VHL/E); assay: competition of unlabeled CCL5 against 125I-CCL5 on US28

Sequence of human chemokine CCL5 (P13501 24-91 limits assumed): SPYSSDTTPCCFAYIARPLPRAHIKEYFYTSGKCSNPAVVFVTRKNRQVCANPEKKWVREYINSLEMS

human chemokine CCL5 (from UniProt P13501 24-91) (ligand)
IC50 (read off the curve) [1]: 3 nM | CCL5-induced accumulation of inositol phosphates (EC80) [2]: 31.6 nM | IC50 (read off the curve) [3]: 1 nM
